From IntAct's records for PubMed 14517307 come the findings set out here.

The target of this assay is nat1_yeast NAT1 (UniProt P12945).
Chain of nat1_yeast NAT1 (P12945 whole entry): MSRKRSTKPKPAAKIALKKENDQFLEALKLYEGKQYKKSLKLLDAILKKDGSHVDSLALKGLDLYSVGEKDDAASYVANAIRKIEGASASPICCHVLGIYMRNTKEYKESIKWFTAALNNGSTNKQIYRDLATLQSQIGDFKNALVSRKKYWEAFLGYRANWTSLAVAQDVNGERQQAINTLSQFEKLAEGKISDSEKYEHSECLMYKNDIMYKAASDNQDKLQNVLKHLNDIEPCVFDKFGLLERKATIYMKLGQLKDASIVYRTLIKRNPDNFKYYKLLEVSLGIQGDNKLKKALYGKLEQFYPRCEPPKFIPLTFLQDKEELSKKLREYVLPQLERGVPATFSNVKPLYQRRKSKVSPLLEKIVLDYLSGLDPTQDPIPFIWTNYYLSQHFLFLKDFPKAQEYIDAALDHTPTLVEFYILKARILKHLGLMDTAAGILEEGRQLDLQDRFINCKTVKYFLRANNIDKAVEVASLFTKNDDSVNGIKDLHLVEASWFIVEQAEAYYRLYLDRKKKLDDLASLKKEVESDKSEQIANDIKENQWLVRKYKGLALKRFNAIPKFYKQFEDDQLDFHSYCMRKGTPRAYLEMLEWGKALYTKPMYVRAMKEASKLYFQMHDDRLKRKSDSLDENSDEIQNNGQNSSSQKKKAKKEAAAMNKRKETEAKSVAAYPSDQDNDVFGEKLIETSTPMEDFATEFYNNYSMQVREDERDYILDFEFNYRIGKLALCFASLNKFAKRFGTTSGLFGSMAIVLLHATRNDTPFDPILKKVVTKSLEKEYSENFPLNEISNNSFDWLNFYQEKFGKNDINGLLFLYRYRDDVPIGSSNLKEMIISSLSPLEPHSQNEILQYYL

Chain of Large ribosomal subunit protein uL4A (Saccharomyces cerevisiae), P10664 S2K (P10664 whole entry S2K): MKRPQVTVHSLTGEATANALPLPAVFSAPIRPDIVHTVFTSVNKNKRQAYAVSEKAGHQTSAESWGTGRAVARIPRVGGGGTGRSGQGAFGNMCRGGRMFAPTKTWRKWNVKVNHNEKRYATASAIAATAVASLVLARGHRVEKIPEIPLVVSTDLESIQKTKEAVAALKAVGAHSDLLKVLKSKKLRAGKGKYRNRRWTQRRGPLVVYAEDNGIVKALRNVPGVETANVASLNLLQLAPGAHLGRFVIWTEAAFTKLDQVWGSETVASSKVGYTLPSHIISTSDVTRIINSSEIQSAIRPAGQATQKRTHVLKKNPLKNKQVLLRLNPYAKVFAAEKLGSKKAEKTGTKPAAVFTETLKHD

Regarding “Large ribosomal subunit protein uL4A (Saccharomyces cerevisiae), P10664 S2K”, the “effect of a mutation on the interaction” value is listed as “increasing interaction”.
